{
  "source": "paper PMC2175199",
  "about": "(The Journal of Cell Biology, 2000)",
  "binders": {"B1": {"name": "XRAD21 (natural protein)", "chain": "MFYAHFVLSKRGPLAKIWLAAHWDKKLTKAHVFECNLESSVESIICPKVKMALRTSGHLLLGVVRIYHRKAKYLLADCNEAFIKIKMAFRPGVVDLPEENREAAYNAITLPEEFHDFDQPLPDLDDIDVAQQFSLNQSRVEEITMREEVSNINILQDNDFGDFGMDDREMMREGSAFEDDMLTTNASNLKLEPEQSTSQLNEKSNHLEYDDQYKDDNFGEGNEGGILDDKLLSNDAGGIFDDPPAMPEEGVAMPEQPVHDDLDDDDNVSMGAPDSPDSVDPVEPLPTMTDQTTLVPNEEEAFALEPIDITVKETKAKRKRKLIVDSVKELDSKTIRAQLSDYSDIVTTLDLAPPTKKLMMWKETGGVEKLFSLPAQPLWNTRLLKLFTRCLTPLVLDDLRKRRKGGEADNLDEFLKEFENPEVPREELRPQDVIDQPILEEASHLQESLMEGSRTHLDDTIMPPPPPKQGVKRDSLQMEPEPMPMMQEAEPQIEMPPPPLPPPLELPPEEPQSISDLIPELNLLPEKEKEKDEEEEEEEEDTTGTEQDQEERRWNKRTQQMLHGLQRVLAKTGAESISLLDLCRNTNRKQAAAKFYSFLVLKKQQAIELTQREPYSDIVATPGPRFHTV"}},
  "key": {"XSA1": {"target": "T1, XSA1 (Xenopus laevis (endogenous in egg …, UniProt Q9DGN1 1-1265))", "T1 sequence": "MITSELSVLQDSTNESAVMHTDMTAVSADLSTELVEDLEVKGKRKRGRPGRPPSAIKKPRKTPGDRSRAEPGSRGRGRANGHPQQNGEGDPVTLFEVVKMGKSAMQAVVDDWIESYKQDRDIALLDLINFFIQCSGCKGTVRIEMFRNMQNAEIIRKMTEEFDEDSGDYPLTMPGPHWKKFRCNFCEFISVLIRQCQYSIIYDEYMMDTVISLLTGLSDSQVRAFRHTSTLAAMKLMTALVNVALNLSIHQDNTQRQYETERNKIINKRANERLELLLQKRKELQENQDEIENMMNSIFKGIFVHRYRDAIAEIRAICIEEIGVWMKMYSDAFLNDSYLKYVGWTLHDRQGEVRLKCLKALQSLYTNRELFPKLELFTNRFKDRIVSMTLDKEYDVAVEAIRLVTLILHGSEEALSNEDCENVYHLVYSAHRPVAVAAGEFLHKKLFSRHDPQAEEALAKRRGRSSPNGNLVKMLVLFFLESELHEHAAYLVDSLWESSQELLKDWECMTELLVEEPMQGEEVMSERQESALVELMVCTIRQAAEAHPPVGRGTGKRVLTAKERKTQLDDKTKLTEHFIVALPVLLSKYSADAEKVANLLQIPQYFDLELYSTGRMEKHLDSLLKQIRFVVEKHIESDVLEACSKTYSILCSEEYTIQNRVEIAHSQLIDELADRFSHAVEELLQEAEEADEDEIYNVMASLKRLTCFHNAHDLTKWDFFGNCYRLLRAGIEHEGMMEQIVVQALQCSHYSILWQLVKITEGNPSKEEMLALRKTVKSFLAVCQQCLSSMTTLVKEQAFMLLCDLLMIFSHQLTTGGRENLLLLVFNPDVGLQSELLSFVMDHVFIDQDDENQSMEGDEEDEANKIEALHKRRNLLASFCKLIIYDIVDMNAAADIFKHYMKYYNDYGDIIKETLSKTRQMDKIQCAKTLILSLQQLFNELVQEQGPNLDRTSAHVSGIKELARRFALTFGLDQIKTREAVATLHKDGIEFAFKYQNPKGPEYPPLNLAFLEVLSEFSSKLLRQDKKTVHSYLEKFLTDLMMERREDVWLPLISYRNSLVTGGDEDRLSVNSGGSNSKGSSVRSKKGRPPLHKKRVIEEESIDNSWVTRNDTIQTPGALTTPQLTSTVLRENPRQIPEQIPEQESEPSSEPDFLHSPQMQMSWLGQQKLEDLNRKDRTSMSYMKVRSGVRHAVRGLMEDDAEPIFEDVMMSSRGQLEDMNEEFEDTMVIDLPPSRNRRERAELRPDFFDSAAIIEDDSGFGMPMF", "assay": "co-IP"}, "XSA2": {"target": "T2, XSA2 (Xenopus laevis (endogenous in egg …, UniProt Q9DGN0 1-1194))", "T2 sequence": "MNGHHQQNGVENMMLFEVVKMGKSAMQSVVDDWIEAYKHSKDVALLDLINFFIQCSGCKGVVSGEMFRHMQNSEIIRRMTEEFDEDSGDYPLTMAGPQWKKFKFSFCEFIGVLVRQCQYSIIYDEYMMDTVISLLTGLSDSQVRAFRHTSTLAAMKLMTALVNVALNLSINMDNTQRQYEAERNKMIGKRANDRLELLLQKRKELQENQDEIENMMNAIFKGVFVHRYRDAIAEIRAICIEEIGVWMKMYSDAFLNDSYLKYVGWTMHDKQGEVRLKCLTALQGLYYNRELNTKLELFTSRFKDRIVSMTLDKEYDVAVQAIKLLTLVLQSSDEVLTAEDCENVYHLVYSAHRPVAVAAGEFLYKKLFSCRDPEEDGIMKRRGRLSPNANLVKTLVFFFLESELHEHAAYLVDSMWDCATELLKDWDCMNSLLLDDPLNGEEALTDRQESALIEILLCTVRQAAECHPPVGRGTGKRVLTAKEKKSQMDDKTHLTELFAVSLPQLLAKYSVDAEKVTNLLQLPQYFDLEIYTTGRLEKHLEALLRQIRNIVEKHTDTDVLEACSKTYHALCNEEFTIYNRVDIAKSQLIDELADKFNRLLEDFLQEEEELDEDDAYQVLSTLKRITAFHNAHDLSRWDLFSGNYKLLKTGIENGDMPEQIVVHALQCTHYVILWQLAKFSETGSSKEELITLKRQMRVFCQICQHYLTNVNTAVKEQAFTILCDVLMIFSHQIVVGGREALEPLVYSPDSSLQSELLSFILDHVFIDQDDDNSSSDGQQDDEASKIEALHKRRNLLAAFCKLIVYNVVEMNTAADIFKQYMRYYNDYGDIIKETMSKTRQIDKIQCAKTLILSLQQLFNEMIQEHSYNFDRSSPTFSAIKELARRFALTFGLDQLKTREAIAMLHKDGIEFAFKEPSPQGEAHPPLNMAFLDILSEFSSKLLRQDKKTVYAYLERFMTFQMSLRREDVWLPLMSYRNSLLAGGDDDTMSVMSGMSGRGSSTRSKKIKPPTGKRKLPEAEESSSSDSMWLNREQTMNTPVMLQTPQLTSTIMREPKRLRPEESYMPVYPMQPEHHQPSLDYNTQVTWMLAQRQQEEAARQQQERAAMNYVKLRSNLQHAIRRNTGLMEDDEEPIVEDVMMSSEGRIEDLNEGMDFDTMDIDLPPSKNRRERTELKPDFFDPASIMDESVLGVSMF", "assay": "co-IP"}},
  "data": [
    {"binder": "B1", "values": [
      {"measurement": "percent depleted from the extract by anti-XSA1", "setting": "XSA1", "result": "~90", "unit": "%"},
      {"measurement": "percent depleted from the extract by anti-XSA2", "setting": "XSA2", "result": "~10", "unit": "%"}
    ]}
  ]
}
